Assays:
[1] = target: GABAB receptor (heterodimer of GABAB1 and GABAB2), untagged and SNAP-tagged subunits in three combinations (rat) (UniProt Q9Z0U4); test: two-photon scanning number and brightness (sN&B) fluctuation microscopy; live cultured rat hippocampal neurons, GABAB1 and/or GABAB2 SNAP-tagged and labelled with Alexa488, corrected for the theoretical number of fluorophores per heterodimer; across expression levels
[2] = target: mGlu2 mutated to be locked in the inactive conformation (HA-ST-mGlu2-515NGlyc-L698C-L729C-F756D), cross-linked with CuP (rat) (UniProt P31421); test: two-photon scanning number and brightness (sN&B) fluctuation microscopy; live cultured rat hippocampal neurons, SNAP-tag labelled with Alexa488, incubated with 150 μM CuP for the last 10 min of labelling, imaged in the absence of ligand; 90-600 subunits/Veff; apparent stoichiometry (lower with CuP)

Sequence of GABAB receptor (heterodimer of GABAB1 and GABAB2), untagged and SNAP-tagged subunits in three combinations (Q9Z0U4 20-960): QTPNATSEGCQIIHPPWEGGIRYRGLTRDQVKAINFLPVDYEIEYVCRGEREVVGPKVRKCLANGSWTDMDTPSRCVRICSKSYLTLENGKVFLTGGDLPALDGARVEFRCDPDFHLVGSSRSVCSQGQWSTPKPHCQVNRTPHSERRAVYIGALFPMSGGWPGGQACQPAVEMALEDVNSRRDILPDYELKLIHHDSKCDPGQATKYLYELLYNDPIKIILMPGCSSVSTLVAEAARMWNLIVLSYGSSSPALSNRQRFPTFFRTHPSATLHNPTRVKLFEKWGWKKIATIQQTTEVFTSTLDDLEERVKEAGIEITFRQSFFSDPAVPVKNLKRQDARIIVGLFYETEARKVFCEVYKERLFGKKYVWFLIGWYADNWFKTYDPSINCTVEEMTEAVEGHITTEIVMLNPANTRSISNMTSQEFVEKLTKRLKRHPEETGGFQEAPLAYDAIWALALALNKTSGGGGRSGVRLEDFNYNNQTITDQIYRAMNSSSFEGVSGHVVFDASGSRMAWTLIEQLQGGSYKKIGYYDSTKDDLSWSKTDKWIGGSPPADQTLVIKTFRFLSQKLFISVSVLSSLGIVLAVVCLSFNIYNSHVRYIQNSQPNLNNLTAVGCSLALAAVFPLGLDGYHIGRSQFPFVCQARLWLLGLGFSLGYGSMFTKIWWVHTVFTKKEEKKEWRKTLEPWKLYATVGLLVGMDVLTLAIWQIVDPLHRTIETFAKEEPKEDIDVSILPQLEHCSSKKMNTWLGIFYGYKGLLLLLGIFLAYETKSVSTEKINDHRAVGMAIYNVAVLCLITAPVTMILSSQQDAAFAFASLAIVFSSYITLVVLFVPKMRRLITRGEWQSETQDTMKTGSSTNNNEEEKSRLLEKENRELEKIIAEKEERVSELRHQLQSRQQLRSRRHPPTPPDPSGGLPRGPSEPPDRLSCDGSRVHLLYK
Sequence of GABAB receptor (heterodimer of GABAB1 and GABAB2), untagged and SNAP-tagged subunits in three combinations (O88871 41-940): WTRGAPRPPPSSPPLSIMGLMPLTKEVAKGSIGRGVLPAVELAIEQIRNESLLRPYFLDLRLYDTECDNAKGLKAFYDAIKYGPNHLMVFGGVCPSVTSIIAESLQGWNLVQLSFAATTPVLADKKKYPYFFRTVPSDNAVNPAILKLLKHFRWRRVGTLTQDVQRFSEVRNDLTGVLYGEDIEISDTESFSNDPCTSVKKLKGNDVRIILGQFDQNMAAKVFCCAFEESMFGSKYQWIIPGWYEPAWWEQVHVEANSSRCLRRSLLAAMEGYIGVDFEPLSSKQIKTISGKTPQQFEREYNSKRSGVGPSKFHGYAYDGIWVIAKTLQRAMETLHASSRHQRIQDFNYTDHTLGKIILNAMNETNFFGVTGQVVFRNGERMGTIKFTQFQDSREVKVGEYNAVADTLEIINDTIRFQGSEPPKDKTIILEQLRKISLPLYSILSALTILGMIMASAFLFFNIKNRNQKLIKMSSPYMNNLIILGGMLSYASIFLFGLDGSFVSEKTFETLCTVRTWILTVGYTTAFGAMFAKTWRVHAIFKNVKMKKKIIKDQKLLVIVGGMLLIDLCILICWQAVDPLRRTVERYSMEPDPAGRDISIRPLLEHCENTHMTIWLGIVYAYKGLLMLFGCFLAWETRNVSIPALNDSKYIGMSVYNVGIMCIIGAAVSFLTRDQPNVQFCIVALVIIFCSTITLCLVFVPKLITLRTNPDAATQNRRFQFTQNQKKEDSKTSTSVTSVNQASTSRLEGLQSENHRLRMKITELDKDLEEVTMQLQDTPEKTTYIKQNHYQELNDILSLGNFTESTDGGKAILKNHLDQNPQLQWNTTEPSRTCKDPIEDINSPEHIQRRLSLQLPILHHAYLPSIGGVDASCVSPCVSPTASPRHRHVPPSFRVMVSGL

## GABAB receptor (heterodimer of GABAB1 and GABAB2), untagged and SNAP-tagged subunits in three combinations (from UniProt Q9Z0U4 20-960; O88871 41-940) (complex)
[1]
  stoichiometry N (per diffusing complex): 2 to 8

## mGlu2 mutated to be locked in the inactive conformation (HA-ST-mGlu2-515NGlyc-L698C-L729C-F756D), cross-linked with CuP (from UniProt P31421 19-872) (receptor)
[2]
  stoichiometry N (subunits/complex): 2.3
